Assay [1] has as its target T1, HuCD28-HuIgG1 (fusion protein of the extracellular part of human CD28 and human Fc gamma 1, R&D Systems Cat … (human, UniProt P10747 19-152; P01857 100-330 = IgG part).
T1 construct: extracellular domain;domain: Fc; bought; also called CD28-Ig; hCD28-Fc
Kind of assay: competition ELISA, CD28-hFc in solution; blocked ligand coated B7-1-muFc. For orientation: An ELISA detects its analyte on a solid surface through an enzyme-linked reagent.

The target in assay [2] is T2, rhPDL2-Fc (fusion protein of the extracellular part of human PD-L2 and mouse Fc gamma 1, R&D Systems Cat … (human; mouse, UniProt Q9BQ51 20-220; P01868 98-324 = IgG part, limits assumed).
T2 construct: extracellular domain;domain: Fc; bought; also called PD-L2 ectodomain
As to the kind of experiment: competition ELISA, coated PD-L2; blocked ligand PD-1-biotin. As for the experimental part:
In short, 2 μg/ml PD-L2 ectodomain (R&D Systems, Minneapolis, US, Cat #1224-PL) was immobilized on maxisorp microtiter plates (Nunc, Wiesbaden, Germany) and free binding sites were blocked using 4% Marvel in PBS. Next, 0.5 μg/ml of PD-1 was preincubated with a dilution series of purified Nanobody.

Assay [3] addresses T3, rhPD1-Fc (fusion protein of the extracellular part of human PD-1 and mouse Fc gamma 1, R&D Systems Cat … (human; mouse, UniProt Q15116 25-170; P01868 98-324 = IgG part, limits assumed).
T3 construct: extracellular domain;domain: Fc; bought; also called PD-1 ectodomain
Kind of assay: competition ELISA, coated PD-1; blocked ligand B7-H1-biotin. As for the experimental part: (§1) In short, 2 μg/ml PD-1 ectodomain (R&D Systems Cat #1086-PD, Minneapolis, US) was immobilized on maxisorp microtiter plates (Nunc, Wiesbaden, Germany) and free binding sites were blocked using 4% Marvel in PBS.

For assay [4], the target named is T3, rhPD1-Fc (fusion protein of the …). Kind of assay: competition ELISA, coated PD-1; blocked ligand PD-L2-biotin. As for the experimental part:
as §1

For assay [5], the target named is T4, human CD28 on Jurkat cells (human, UniProt P10747 19-220).
T4 construct: whole, on cells; also called native form of the CD28 antigen; cell expressed CD28
Kind of assay: FACS competition, Jurkat cells; blocked ligand CD80-Fc. An excerpt:
The potency of cell-expressed CD28 binding Nanobodies to inhibit the interaction of CD28 with either CD80 or CD86 was also ranked using FACS based screening method. […] Dead cells were stained by including TOPRO3 vital dye in the final resuspension buffer. All samples were read on a BD FACSarray instrument. Dead cells were excluded from the analysis by gating out TOPRO3 vital dye positive scoring cells.

The target of assay [6] is T5, rhB7-H2-Fc (fusion protein of the extracellular part of human B7-H2 (ICOSL) and mouse Fc gamma 1, R&D Systems … (human; mouse, UniProt O75144 19-256; P01868 98-324 = IgG part, limits assumed).
T5 construct: extracellular domain;domain: Fc; bought; also called B7-H2 ectodomain
As to the kind of experiment: competition ELISA, coated B7-H2; blocked ligand ICOS-biotin.

The target of assay [7] is T6, HuCD80-HuIgG1 (fusion protein of the extracellular part of human CD80 and human Fc gamma 1, R&D Systems Cat … (human, UniProt P33681 35-242)).
T6 construct: extracellular domain; bought, produced in NS0 cells; also called CD80-IgG1; CD80-Ig; not shown: human Fc gamma 1
T6 sequence (looked up): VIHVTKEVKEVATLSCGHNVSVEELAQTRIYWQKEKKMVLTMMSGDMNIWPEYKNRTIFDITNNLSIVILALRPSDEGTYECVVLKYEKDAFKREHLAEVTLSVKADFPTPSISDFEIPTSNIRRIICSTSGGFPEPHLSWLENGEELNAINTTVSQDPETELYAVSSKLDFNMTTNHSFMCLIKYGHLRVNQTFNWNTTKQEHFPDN
As to the kind of experiment: ELISA, periplasmic extract on coated antigen, anti-myc detection. The source says:
(§2) To this end, 3 independent ELISA assays were set up. In these ELISAs, either HuCD80 or HuCD86 fusion proteins or human IgG1 were coated on ELISA plates which were washed and then blocked using Marvel skimmed milk powder (Premier Brands UK Ltd., Wirral, Merseyside, UK). […] Four aliquots of periplasmic extract of individual clones prepared as described in Example 4 were allowed to bind in all four types of ELISA plates. Binding of Nanobody to immobilized antigen was detected using mouse anti-c-myc tag monoclonal antibody as a secundary, followed by a goat-anti-mouse (human and bovine serum protein pre-absorbed) HRP conjugate for detection (for detailed protocol, see the prior art and prior applications filed by applicant).

In assay [8] the target is T7, Human IgG1, purified from a human plasma (Sigma-Aldrich Cat #I-5154) (human).
T7 construct: also called HuIgG1
Described as above.
Text: as §2

Assay [9] concerns the target T8, HuCD86-HuIgG1 (fusion protein of the extracellular part of human CD86 and human Fc gamma 1, R&D Systems Cat … (human, UniProt P42081 24-247)).
T8 construct: extracellular domain; bought; also called CD86-IgG1; CD86-Ig; not shown: human Fc gamma 1
T8 sequence (looked up): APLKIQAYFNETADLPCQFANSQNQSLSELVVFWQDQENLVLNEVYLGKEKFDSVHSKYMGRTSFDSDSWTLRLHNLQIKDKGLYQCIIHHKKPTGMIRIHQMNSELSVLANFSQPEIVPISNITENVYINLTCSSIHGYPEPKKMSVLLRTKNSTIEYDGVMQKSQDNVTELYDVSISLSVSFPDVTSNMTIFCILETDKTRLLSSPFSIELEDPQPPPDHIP
The assay is described as above.
Text: as §2

The target in assay [10] is T6, HuCD80-HuIgG1 (fusion protein of the …). Kind of assay: SPR, Biacore 3000, antigen amine-coupled. As for the experimental part:
(§3) Affinity constants (Kd) of individual purified Nanobody clones were determined by surface plasmon resonance on a Biacore 3000 instrument. […] Remaining reactive groups were inactivated using ethanolamine. Nanobody binding was assessed at 1 and 0.1 microM. Each sample was injected for 4 min at a flow rate of 45 μl/min to allow for binding to chip-bound antigen. Next, binding buffer without Nanobody was sent over the chip at the same flow rate to allow for dissociation of bound Nanobody. After 2 min, remaining bound analyte was removed by injecting regeneration solution (50 mM NaOH or Glycine/HCl pH 1.5). Binding curves obtained at different concentrations of Nanobody were used to calculate Kd values.
On the technique in general: In SPR one partner is held on a chip, and binding of the other changes the refractive index at the surface.

The target in assay [11] is T8, HuCD86-HuIgG1 (fusion protein of the …). Kind of assay: SPR, Biacore 3000, antigen amine-coupled. The procedure: as §3

B1: 70F9 (VHH)
VHH: EVQLVESGGGLVQAGGSLRLSCAASGRTFSSYVMGWFRQAPGKEREFVAAHSWYADYADSVKGRFSISRDNDKNTVYLQMNSLKPEDTAVYYCAASRSQGRRYANSYESWGQGTQVTVSS
notes: Nanobody against CD28
As to B1, the “IC50 (read off the curve)” value in assay [1] is ~100 nM.

B2: 103F6 (VHH)
VHH: EVQLVESGGGLVQPGGSLRLSCAASGFTFSTYTMIWLRRAPGKGFEWVSTIDKDGNTNYVDSVKGRFAVSRDNTKNTLYLQMNSLKPEDTAMYYCTKHGSSARGQGTRVTVSS
notes: Nanobody against PD-L2
Take B2: the “IC50 (read off the curve)” value in [2] is ~7 nM.

B3: 102C3 (VHH)
VHH: EVQLVESGGGLVQAGKSLRLSCAASGSIFSIHAMGWFRQAPGKEREFVAAITWSGGITYYEDSVKGRFTISRDNAKNTVYLQMNSLKPEDTAIYYCAADRAESSWYDYWGQGTQVTVSS
notes: Nanobody against PD-1
With B3, the “IC50 (read off the curve)” value in assay [3] and in assay [4] was ~10 nM each time.

B4: 102E2 (VHH)
VHH: EVQLVESGGGLVQAGGSLRLSCAASGSISSIHAMGWFRQAPGKEREFVAAITWSGGITYYADSLKGRFTISRDNAKNTGYLQMNSLKPEDTAIYYCAADRAQSSWYDYWGQGTQVTVSS
notes: Nanobody against PD-1
On to B4, for which the “IC50 (read off the curve)” value in assay [3] and in assay [4] was ~70 nM each time.

B5: 102C12 (VHH)
VHH: EVQLVESGGGLVQAGGSLRLSCAASGSIASIHAMGWFRQAPGKEREFVAVITWSGGITYYADSVKGRFTISRDNAKNTVYLQMNSLKPEDTAIYYCAGDKHQSSWYDYWGQGTQVTVSS
notes: Nanobody against PD-1
On to B5, for which the results for the “IC50 (read off the curve)” value in [3] and in [4] were ~80 nM and ~70 nM, respectively.

B6: 102E8 (VHH)
VHH: EVQLVESGGGLVQAGGSLGLSCAASGSIFSINAMAWFRQAPGKEREFVALISWSGGSTYYEDSVKGRFTISRDNAKNTVYLQMNSLKPEDTAIYYCAADRVDSNWYDYWGQGTQVTVSS
notes: Nanobody against PD-1
With B6, the “IC50 (read off the curve)” value in assay [3] and in assay [4] was ~200 nM each time.

B7: 65B2 (VHH)
VHH: EVQLVESGGGLVQAGGSLRLSCATSGRTFSSDVMGWFRQAPGKEREFVAAINRSGHSTSYTGSVKGRFAISRDNTKNTVYLQMNSLKPEDTAVYYCALRLWSDYLAQKSGEYNYWGQGTQVTVSS
notes: Nanobody against CD28
As to B7, the “IC50 (read off the curve)” value in [5] is ~200 ng/well; in assay [1], ~200 nM.

B8: 95F8 (VHH)
VHH: EVQLVESGGGLVQAGGSLRLSCAASGIAFSIDIMDWYRQAPGKERELVATISGGGSTNYADSVKGRFIVSRDNAKNILYLQMNSLKPDDTAVYYCNARRLIYGRTVYWGQGTQVTVSS
notes: Nanobody against B7-H2 (ICOSL)
With B8, the “IC50 (read off the curve)” value in assay [6] is ~8 nM.

B9: 95H8 (VHH)
VHH: EVQLVESGGGLVQTGGSLRLSCAASSSTSTSSIDVMGWYRQSPGKQRELVASISSFGSTYYADSVKGRFIISRDNAKNTVNLQMNNLKLEDTAVHFCNLRRLSPPPLLDYWGQGTQVTVSS
notes: as for B8
On to B9, for which the “IC50 (read off the curve)” value in assay [6] was ~10 nM.

B10: CD8086PMP1B2 (VHH)
VHH: EVQLVESGGGLVQAGGSLRLSCAASGRSFSSYVMGWFRQAPGKEREFVAAIIGRDIGTYYADSVKGRFTISRDNAKTTVYLQMNALKPEDTAVYYCAADSRSRLSGIRSAYDYWGQGTVTVSS
notes: not shown: C-terminal c-myc tag and His6 tag
In assay [7], B10 yielded an OD of 1.99 OD. Besides, the OD in assay [8] stood at 0.046 OD. The same molecule displayed an OD in [9] of 0.038 OD. In assay [10], the Kd (in general, the concentration at which binding is half-saturated) is 0.13 nM; the koff (as a rule, the first-order rate constant of dissociation) amounted to 5.9e-05 s⁻¹; the kon (commonly the rate constant with which the complex forms) is 440000 M⁻¹ s⁻¹. Further, the binding result in [11] is “no binding (tested: 1 and 0.1 microM)”.

B11: 95A6 (VHH)
VHH: EVQLVESGGGLVQAGGSLRLSCALSGRAVSIAATAMGWYRQAPGKQRELVAARWSGGSIQYLDSVKGRFTISRDNAKNTVYLQMNSLTPEDTAVYYCNTLPWRANYSGQGTQVTVSS
notes: as for B8
For the molecule B11, the “IC50 (read off the curve)” value in assay [6] was ~10 nM.

B12: 95B11 (VHH)
VHH: EVQLVESGGGLVQPGGSLRLSCAASRSISSFNLLGWYRQAPGKQRELVAHLLSGGSTVYPDSVKGRFTVSRDNTKNTVYLQMNSLKPEDTAVYYCNAIAPALGSSWGQGTQVTVSS
notes: as for B8
In the case of B12, in assay [6], the “IC50 (read off the curve)” value was ~10 nM.

B13: CD8086PMP2F5 (VHH)
VHH: EVQLVKSGGGLVQAGGSLRLSCAASGSIFSIYDMGWYRQAPGKQRELVAAITSGGSTNYADSVKGRFTISRDNAKNTVYLQMNSLKPEDTAVYYCNAIAYEEGVYRWDFWGQGTQVTVSS
notes: as for B10
Consider B13, for which the OD in [7] turned out to be 1.65 OD; in assay [8], 0.056 OD; in [9], 0.774 OD.

B14: 70F10 (VHH)
VHH: EVQLVESGGGLVQAGGSLRLSCAASGFTFDDYAIGWFRQAPGKEREGVACVSNSDGSTYYANSVKGRFTISSDNAKNTVYLQMNSLKPEDTAVYYCAADSRCWGWGMLHMRHGDRGQGTQVTVSS
notes: Nanobody against CD28
As for B14, the “IC50 (read off the curve)” value in assay [1] was ~200 nM.

B15: 103E2 (VHH)
VHH: EVQLVESGGGLVQAGGSLRLSCAASGSTFSNYVSNYAMGWGRQAPGTQRELVASISNGDTTNYADSVKGRFTISRDNAKNTVYLQMNSLKPEDTAVYYCFEHQVAGLTWGQGTQVTVSS
notes: Nanobody against PD-L2
With B15, in assay [2], the “IC50 (read off the curve)” value is ~10 nM.

Source of the values: US20240182575A1 (Ablynx, published 2024).
